Reference: patent US20210214435A1

Legend:
[1] = biological target: human GPVI-Fc (isoform and haplotype not stated) used in the competition ELISA (human) (UniProt Q9HCN6); experiment: Competition ELISA (MSD): human GPVI-Fc preincubated with Fab, then on coated rat-tail collagen (competitor)
[2] = biological target: human GPVI-Fc (isoform and haplotype not stated) used in the competition ELISA (human) (UniProt Q9HCN6); experiment: Competition ELISA (MSD): human GPVI-Fc preincubated with Fab, then on coated CRP-XL (competitor)
[3] = biological target: human GPVI-Fc (isoform and haplotype not stated) used in the competition ELISA (human) (UniProt Q9HCN6); experiment: Competition ELISA (MSD): human GPVI-Fc preincubated with Fab, then on coated VitroCol (competitor)
[4] = biological target: human GPVI on the cell surface of human platelets (human) (UniProt Q9HCN6); experiment: FACS on washed human platelets from PRP (one exemplary donor), PE-conjugated detection antibody, median fluorescence
[5] = biological target: human GPVI on the cell surface of human platelets (human) (UniProt Q9HCN6); experiment: FACS on washed human platelets from PRP, Fab directly conjugated with PE, average + SD of 3 donors, signal given as GPVI molecules per cell

Row | Binder | IC50 [1] | Maximum inhibition at 200 nM Fab [%] [1] | IC50 [2] | Maximum inhibition at 200 nM Fab [%] [2] | IC50 [3] | Maximum inhibition at 200 nM Fab [%] [3] | EC50 (read off the curve) [4] | EC50 (read off the curve) [5]
1 | Fab #2 comprising a modified heavy chain constant region (Fab, V domains shown) VH: QVQLVESGGGLVKPGGSLRLSCAASGFSFSDHYMSWIRQAPGKGLEWVSSVGSEGKFIDYAASVKGRFTISRDNAKNSLYLQMNSLRAEDTAVYYCARHYREFRWHYYYFDYWGQGTLVTVSS VL: QSVLTQPPSVSGAPGQRVTISCTGSSSNIGAGYDVHWYQQLPGTAPKLLIYGNSNRPSGVPDRFSGSKSGTSASLAITGLQAEDEADYYCQSHDLGAHVWVFGGGTKLTVLG | 6.3 nM | 100% | 8.3 nM | 100% | 5.4 nM | 100% | 0.4 µg/mL | 
2 | Reference Control Antibody RefFab #1 (humanized GPVI antibody of WO2011073954A2, SANOFI) (Fab, V domains shown) VH: EVQLLESGPGLVAPSGSLSITCTVSGFSLTGYGVNWVRQPPGKGLEWLGMIWGDGSTDYQSTLKSRLSISKDNSKSQVFLKMNSLRTDDTARYYCARDLPMDYWGLGTSVTVSS VL: DIQMTQSPSSLSASVGGRVTITCKASQDINKYIAWYQHKPGKGPSLLIHYTSTLQPGVPSRFSGSGSGRDYSFSISNLQPEDIATYYCLQYANLLTFGGGTKLEIKR | 7 nM | 99% | 10.6 nM | 100% | 5.8 nM | 100% | 1 µg/mL | 
3 | Fab #1 comprising a modified heavy chain constant region (Fab, V domains shown) VH: QVQLVQSGAEVKKPGASVKVSCKASGYTFTSHYMHWVRQAPGQGLEWMGLIEPSEGETEYAQRFQGRVTMTRDTSTSTVYMELSSLRSEDTAVYYCARDSSRSYPLGFDIWGQGTLVTVSS VL: QSVLTQPPSVSAAPGQKVTISCSGSSSNIGNNYVSWYQQLPGTAPKLLIYDNNKRPSGIPDRFSGSKSGTSATLGITGLQTEDEADYYCAAWDFRSSRWVFGGGTKLTVLG | 11 nM | 89% | 10.9 nM | 63% | 8.2 nM | 79% | 0.2 µg/mL | 

Further binders by falling IC50 [1], results first:

Row | IC50 [1] | Maximum inhibition at 200 nM Fab [%] [1] | IC50 [2] | Maximum inhibition at 200 nM Fab [%] [2] | IC50 [3] | Maximum inhibition at 200 nM Fab [%] [3] | EC50 (read off the curve) [4] | EC50 (read off the curve) [5] | Binder
4 | 8.2 nM | 86% | 13.2 nM | 47% | 10.6 nM | 82% | 0.5 µg/mL | 0.6 µg/mL | Fab #4 comprising a modified heavy chain constant region (Fab, V domains shown) VH: QVQLVQSGAEVKKPGASVKVSCKASGGAFTSSYMHWVRQAPGQGLEWMGIIEPTGASTLYAQRFQGRVTMTRDTSTSTVYMELSSLRSEDTAVYYCARTGIALPLGFDLWGQGTLVTVSS VL: QSVLTQPPSVSAAPGQKVTISCSGSSSNIGNNYVSWYQQLPGTAPKLLIYDNNKRPSGIPDRFSGSKSGTSATLGITGLQTEDEADYYCAAWSTRFRWVFGGGTKLTVLG
5 | 6.3 nM | 99% | 8.7 nM | 100% | 5.6 nM | 99% | 0.4 µg/mL | 0.5 µg/mL | Fab #3 comprising a modified heavy chain constant region (Fab, V domains shown) VH: QVQLVESGGGLVKPGGSLRLSCAASGFSFGDYYVSWIRQAPGKGLEWVSAIGGSGSAVQYAESVKGRFTISRDNAKNSLYLQMNSLRAEDTAVYYCARHYREFRWHYYYFDYWGQGTLVTVSS VL: QSVLTQPPSVSGAPGQRVTISCTGSSSNIGAGYDVHWYQQLPGTAPKLLIYGNSNRPSGVPDRFSGSKSGTSASLAITGLQAEDEADYYCQSHDLGAHVWVFGGGTKLTVLG
